B1: 26S proteasome regulatory subunit RPN1 (Saccharomyces cerevisiae), P38764 (parent)
chain: MVDESDKKQQTIDEQSQISPEKQTPNKKDKKKEEEEQLSEEDAKLKTDLELLVERLKEDDSSLYEASLNALKESIKNSTSSMTAVPKPLKFLRPTYPDLCSIYDKWTDPNLKSSLADVLSILAMTYSENGKHDSLRYRLLSDVSDFEGWGHEYIRHLALEIGEVYNDQVEKDAEDETSSDGSKSDGSAATSGFEFSKEDTLRLCLDIVPYFLKHNGEEDAVDLLLEIESIDKLPQFVDENTFQRVCQYMVACVPLLPPPEDVAFLKTAYSIYLSQNELTDAIALAVRLGEEDMIRSVFDATSDPVMHKQLAYILAAQKTSFEYEGVQDIIGNGKLSEHFLYLAKELNLTGPKVPEDIYKSHLDNSKSVFSSAGLDSAQQNLASSFVNGFLNLGYCNDKLIVDNDNWVYKTKGDGMTSAVASIGSIYQWNLDGLQQLDKYLYVDEPEVKAGALLGIGISASGVHDGEVEPALLLLQDYVTNPDTKISSAAILGLGIAFAGSKNDEVLGLLLPIAASTDLPIETAAMASLALAHVFVGTCNGDITTSIMDNFLERTAIELKTDWVRFLALALGILYMGQGEQVDDVLETISAIEHPMTSAIEVLVGSCAYTGTGDVLLIQDLLHRLTPKNVKGEEDADEEETAEGQTNSISDFLGEQVNEPTKNEEAEIEVDEMEVDAEGEEVEVKAEITEKKNGESLEGEEIKSEEKKGKSSDKDATTDGKNDDEEEEKEAGIVDELAYAVLGIALIALGEDIGKEMSLRHFGHLMHYGNEHIRRMVPLAMGIVSVSDPQMKVFDTLTRFSHDADLEVSMNSIFAMGLCGAGTNNARLAQLLRQLASYYSREQDALFITRLAQGLLHLGKGTMTMDVFNDAHVLNKVTLASILTTAVGLVSPSFMLKHHQLFYMLNAGIRPKFILALNDEGEPIKVNVRVGQAVETVGQAGRPKKITGWITQSTPVLLNHGERAELETDEYISYTSHIEGVVILKKNPDYREEE
partner: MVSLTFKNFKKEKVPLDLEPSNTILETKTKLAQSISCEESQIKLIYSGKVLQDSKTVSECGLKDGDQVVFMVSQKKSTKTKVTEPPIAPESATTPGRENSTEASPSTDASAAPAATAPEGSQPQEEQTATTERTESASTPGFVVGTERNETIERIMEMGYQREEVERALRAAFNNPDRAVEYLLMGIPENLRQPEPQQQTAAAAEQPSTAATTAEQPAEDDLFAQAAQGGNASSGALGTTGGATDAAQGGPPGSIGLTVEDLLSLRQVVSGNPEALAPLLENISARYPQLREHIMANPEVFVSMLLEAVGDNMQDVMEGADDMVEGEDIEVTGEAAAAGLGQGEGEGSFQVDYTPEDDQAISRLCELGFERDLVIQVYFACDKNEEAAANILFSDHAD

Data on one variant can be found in IntAct's records for PubMed 26912900.

This assay covers variants of B1. As to conditions: with rad23_yeast RAD23, P32628.
D541A;D548R;E552R: the “effect of a mutation on the interaction” value is on record as “disrupting interaction strength”.
